For this data set, the system named is ATP. The data set can be described thus: switch fluorescence ratio, 500 uM ATP over buffer (Cy3 cluster intensity, sum of 5 cycles each) (fold (ratio)); higher = stronger signal-on switching upon ATP binding; sequences stand for … in TCGTCGGCAGCGTCAGATGTGTATAAGAGACAGTTTTTTTTTTTTTTTTTTTTTTTTT…TC. Conditions: aptamer strand: ATP DNA aptamer (quencher-CACCTGGGGGAGTATTGCGGAGGAAGG + anchor), 100 nM annealed; ATP concentration: 500 uM. The method in brief:
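Clusters carrying Cy3-labelled switching strands on a modified Illumina MiSeq flow-cell were annealed to 100 nM quencher-labelled ATP aptamer and imaged in selection buffer. They were imaged again after 15 min with 500 uM ATP at 22 °C, over five buffer/ATP cycles with NaOH stripping and re-annealing in between. For each cluster, the fluorescence ratio is the summed Cy3 intensity of the target cycles divided by that of the buffer cycles, averaged per switch-domain sequence. Clusters outside 100-1000 RFU were left out.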

± gives the standard deviation of the averaged measurements.
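Note: ATP exposure 15 min at 22 °C before imaging.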

On to TTTTTAGTTC, for which the switch fluorescence ratio was found to be 0.98 ± 0.027. TTTTTATAAA: the switch fluorescence ratio is 1.01 ± 0.039. The same measure for TTTTTATAAC: 1 ± 0.031. The same measure for TTTTTATACG: 0.984 ± 0.072; for TTTTTATAGT: 1.02 ± 0.022.

For the sequence TTTTTATCTT, the switch fluorescence ratio is 1.03 ± 0.046.

In the case of TTTTTATGGT, the switch fluorescence ratio was 0.984 ± 0.027. Next, TTTTTCAATG: 0.979 ± 0.042. For TTTTTCCATA, the switch fluorescence ratio came out at 1 ± 0.022.

Consider TTTTTCCCAT, for which the switch fluorescence ratio was 1.03 ± 0.014. Next, TTTTTCCCCC: 1.04 ± 0.05; TTTTTCCGGA: 0.997 ± 0.048; TTTTTCCTAC: 1 ± 0.016.

Take TTTTTCGACC: the switch fluorescence ratio was 1.01 ± 0.035. Next, TTTTTCGG: 0.996 ± 0.025; TTTTTCGGCT: 0.985 ± 0.044; TTTTTCGGTA: 1.05 ± 0.038. The same measure for TTTTTCGGTT: 0.998 ± 0.039; for TTTTTCGTTG: 0.997 ± 0.049.

On to TTTTTCTAAA, for which the switch fluorescence ratio came to 0.9834 ± 0.0074. Next, TTTTTCTCGG: 0.992 ± 0.01. As to TTTTTCTTCT, the switch fluorescence ratio was 1.31 ± 0.36. The same measure for TTTTTGAAAG: 0.996 ± 0.013; for TTTTTGAAGG: 0.992 ± 0.024. The same measure for TTTTTGAATC: 0.983 ± 0.017; for TTTTTGAGAA: 0.983 ± 0.033; for TTTTTGATAT: 1.05 ± 0.056. The same measure for TTTTTGATTG: 1.01 ± 0.014; for TTTTTGCCGC: 1.02 ± 0.012.

Take TTTTTGCCTT: the switch fluorescence ratio amounted to 1 ± 0.024. Next, TTTTTGCTGA: 1.01 ± 0.032. The same measure for TTTTTGCTTG: 0.98 ± 0.029; for TTTTTGGACG: 0.969 ± 0.081.

As to TTTTTGGATC, the switch fluorescence ratio came out at 1 ± 0.025.

For TTTTTGGCGT, the switch fluorescence ratio was found to be 1.02 ± 0.033. Regarding TTTTTGGGAG, the switch fluorescence ratio is 1.01 ± 0.024. The same measure for TTTTTGGGCT: 0.996 ± 0.028. As for TTTTTGGGTG, the switch fluorescence ratio amounted to 1.03 ± 0.058. Take TTTTTGGTA: the switch fluorescence ratio was found to be 0.985 ± 0.011. The same measure for TTTTTGGTAG: 1 ± 0.042; for TTTTTGGTCG: 0.993 ± 0.086; for TTTTTGGTCT: 0.997 ± 0.027.

For the sequence TTTTTGGTGG, the switch fluorescence ratio was 1 ± 0.032. Next, TTTTTGTACT: 1.11 ± 0.083; TTTTTGTATC: 0.968 ± 0.022; TTTTTGTCAC: 1.03 ± 0.038. The same measure for TTTTTGTGAT: 1.02 ± 0.032. For TTTTTGTGGA, the switch fluorescence ratio amounted to 1.03 ± 0.019.

As for TTTTTGTGGT, the switch fluorescence ratio is 1 ± 0.036. Next, TTTTTGTGTG: 0.993 ± 0.023; TTTTTGTTGA: 0.991 ± 0.026.

Regarding TTTTTGTTTT, the switch fluorescence ratio worked out at 1 ± 0.035. Next, TTTTTTAAAA: 0.995 ± 0.03. The same measure for TTTTTTAATT: 1.03 ± 0.071. Next, TTTTTTACGA: 1.04 ± 0.028; TTTTTTACTA: 1.023 ± 0.0015.

As to TTTTTTAGCG, the switch fluorescence ratio amounted to 0.99 ± 0.029. Next, TTTTTTATA: 0.996 ± 0.032; TTTTTTATAA: 1.01 ± 0.023. As for TTTTTTCAAT, the switch fluorescence ratio was 1.03 ± 0.029. Next, TTTTTTCAGA: 0.975 ± 0.029; TTTTTTCCGA: 1.02 ± 0.046; TTTTTTCCTC: 1.1 ± 0.2. With TTTTTTCGGT, the switch fluorescence ratio amounted to 1.01 ± 0.051. The same measure for TTTTTTCTAC: 1.31 ± 0.67; for TTTTTTCTCG: 1.04 ± 0.078; for TTTTTTCTTA: 0.995 ± 0.023. Next, TTTTTTCTTG: 1.02 ± 0.034; TTTTTTGACG: 0.9938 ± 0.0062. Next, TTTTTTGAGG: 0.981 ± 0.025. As to TTTTTTGAGT, the switch fluorescence ratio was 1 ± 0.023. The same measure for TTTTTTGATG: 1.01 ± 0.027. The same measure for TTTTTTGCAG: 0.987 ± 0.029; for TTTTTTGCCA: 1.01 ± 0.051. Next, TTTTTTGCCC: 1.02 ± 0.048; TTTTTTGCTA: 1.01 ± 0.026. For TTTTTTGCTG, the switch fluorescence ratio stood at 0.985 ± 0.026. The same measure for TTTTTTGGG: 0.9686 ± 0.0027; for TTTTTTGGGA: 1.01 ± 0.019; for TTTTTTGGGG: 0.984 ± 0.023. The same measure for TTTTTTGTAT: 1.02 ± 0.087; for TTTTTTGTCT: 0.993 ± 0.021; for TTTTTTGTGT: 0.991 ± 0.03. Next, TTTTTTGTT: 0.977 ± 0.034; TTTTTTGTTT: 1 ± 0.029. Turning to TTTTTTTATA, the switch fluorescence ratio amounted to 0.991 ± 0.024. On to TTTTTTTCAG, for which the switch fluorescence ratio was 1.01 ± 0.016.

For the sequence TTTTTTTCGT, the switch fluorescence ratio stood at 1.07 ± 0.21. In the case of TTTTTTTCT, the switch fluorescence ratio turned out to be 1.01 ± 0.046. Next, TTTTTTTGAG: 1.02 ± 0.026; TTTTTTTGAT: 1.16 ± 0.53; TTTTTTTGTG: 0.984 ± 0.019.

Take TTTTTTTT: the switch fluorescence ratio was 1.04 ± 0.047. Next, TTTTTTTTGA: 0.998 ± 0.017.

For the origin of these results see the supplement of paper PMC10126150.
